49 variants from article PMC13397619 can be followed below.

B1: NLV2 TCR alpha chain (CDR3α only) (parent)
chain: AGPMKTSYDKVI
partner: NLVGMVATV

Variants of B1 are the subject of the assay. Briefly: T-Switch: Jurkat TCRβ−/− cells expressing a CDR3 saturation-mutagenesis library, stained with two peptide-HLA-A*02:01 tetramers (original and novel peptide) plus anti-CD3, FACS-sorted into four gates, gDNA sequenced. Particulars: with HLA-A*02:01 with peptide … (NLV 2-2, the original bait), tetramers 1 µg/mL, 30 min on ice, DP and SW gates expanded about 10 days between rounds ('two to three rounds of selection' in the Methods), gate SP: higher = more of the variant in the gate that binds the original peptide and not the novel one = retained original binding. Fold enrichment of the CDR3 variant in one FACS gate of a two-tetra, unresolved parent, parent is a CDR3 fragment, scale: fold enrichment, numbering: sequential-on-construct, sequence ….
Consider […] (CDR3 as printed); I12T derived by comparing it with the table's wild-type CDR3 AGPMKTSYDKVI, for which the enrichment was found to be 0.

Consider […] (CDR3 as printed); K10S derived by comparing it with the table's wild-type CDR3 AGPMKTSYDKVI, for which the enrichment turned out to be 0.

For the variant […] (CDR3 as printed); A1T derived by comparing it with the table's wild-type CDR3 AGPMKTSYDKVI, the enrichment is 0.262.

As for […] (CDR3 as printed); G2N derived by comparing it with the table's wild-type CDR3 AGPMKTSYDKVI, the enrichment worked out at 0.

Consider […] (CDR3 as printed); P3G derived by comparing it with the table's wild-type CDR3 AGPMKTSYDKVI, for which the enrichment amounted to 0.

[…] (CDR3 as printed); M4Y derived by comparing it with the table's wild-type CDR3 AGPMKTSYDKVI: the enrichment came to 0.292.

Consider […] (CDR3 as printed); P3Y derived by comparing it with the table's wild-type CDR3 AGPMKTSYDKVI, for which the enrichment came out at 0.

On to […] (CDR3 as printed); D9A derived by comparing it with the table's wild-type CDR3 AGPMKTSYDKVI, for which the enrichment stood at 0.

As to […] (CDR3 as printed); D9T derived by comparing it with the table's wild-type CDR3 AGPMKTSYDKVI, the enrichment came to 0.

With […] (CDR3 as printed); I12S derived by comparing it with the table's wild-type CDR3 AGPMKTSYDKVI, the enrichment is 0.

Consider […] (CDR3 as printed); P3M derived by comparing it with the table's wild-type CDR3 AGPMKTSYDKVI, for which the enrichment was determined as 0.

On to […] (CDR3 as printed); M4K derived by comparing it with the table's wild-type CDR3 AGPMKTSYDKVI, for which the enrichment came out at 0.788.

For […] (CDR3 as printed); G2W derived by comparing it with the table's wild-type CDR3 AGPMKTSYDKVI, the enrichment came to 0.

In the case of […] (CDR3 as printed); P3V derived by comparing it with the table's wild-type CDR3 AGPMKTSYDKVI, the enrichment is 0.124.

For the variant […] (CDR3 as printed); A1S derived by comparing it with the table's wild-type CDR3 AGPMKTSYDKVI, the enrichment turned out to be 0.551.

Consider […] (CDR3 as printed); D9K derived by comparing it with the table's wild-type CDR3 AGPMKTSYDKVI, for which the enrichment is 0.

In the case of […] (CDR3 as printed); K5Y derived by comparing it with the table's wild-type CDR3 AGPMKTSYDKVI, the enrichment came to 0.

Regarding […] (CDR3 as printed); G2E derived by comparing it with the table's wild-type CDR3 AGPMKTSYDKVI, the enrichment amounted to 0.387.

Regarding […] (CDR3 as printed); T6D derived by comparing it with the table's wild-type CDR3 AGPMKTSYDKVI, the enrichment amounted to 0.

[…] (CDR3 as printed); M4E derived by comparing it with the table's wild-type CDR3 AGPMKTSYDKVI: the enrichment is 27.

With […] (CDR3 as printed); G2R derived by comparing it with the table's wild-type CDR3 AGPMKTSYDKVI, the enrichment worked out at 0.

As for […] (CDR3 as printed); A1F derived by comparing it with the table's wild-type CDR3 AGPMKTSYDKVI, the enrichment was 2.07.

[…] (CDR3 as printed); I12Q derived by comparing it with the table's wild-type CDR3 AGPMKTSYDKVI: the enrichment stood at 0.

[…] (CDR3 as printed); T6H derived by comparing it with the table's wild-type CDR3 AGPMKTSYDKVI: the enrichment worked out at 0.

In the case of […] (CDR3 as printed); K10D derived by comparing it with the table's wild-type CDR3 AGPMKTSYDKVI, the enrichment is 0.

For […] (CDR3 as printed); T6C derived by comparing it with the table's wild-type CDR3 AGPMKTSYDKVI, the enrichment amounted to 0.

With […] (CDR3 as printed); A1K derived by comparing it with the table's wild-type CDR3 AGPMKTSYDKVI, the enrichment amounted to 0.

[…] (CDR3 as printed); P3T derived by comparing it with the table's wild-type CDR3 AGPMKTSYDKVI: the enrichment came out at 0.

Take […] (CDR3 as printed); S7T derived by comparing it with the table's wild-type CDR3 AGPMKTSYDKVI: the enrichment turned out to be 0.

With […] (CDR3 as printed); I12G derived by comparing it with the table's wild-type CDR3 AGPMKTSYDKVI, the enrichment came out at 0.

For […] (CDR3 as printed); S7F derived by comparing it with the table's wild-type CDR3 AGPMKTSYDKVI, the enrichment came to 0.

Regarding […] (CDR3 as printed); P3I derived by comparing it with the table's wild-type CDR3 AGPMKTSYDKVI, the enrichment was found to be 1.59.

In the case of […] (CDR3 as printed); D9C derived by comparing it with the table's wild-type CDR3 AGPMKTSYDKVI, the enrichment stood at 0.

For the variant […] (CDR3 as printed); I12A derived by comparing it with the table's wild-type CDR3 AGPMKTSYDKVI, the enrichment was 2.32.

On to […] (CDR3 as printed); A1V derived by comparing it with the table's wild-type CDR3 AGPMKTSYDKVI, for which the enrichment was found to be 0.

For the variant […] (CDR3 as printed); K10H derived by comparing it with the table's wild-type CDR3 AGPMKTSYDKVI, the enrichment is 0.422.

Regarding […] (CDR3 as printed); M4W derived by comparing it with the table's wild-type CDR3 AGPMKTSYDKVI, the enrichment came to 0.

Consider […] (CDR3 as printed); S7M derived by comparing it with the table's wild-type CDR3 AGPMKTSYDKVI, for which the enrichment amounted to 0.

For […] (CDR3 as printed); M4H derived by comparing it with the table's wild-type CDR3 AGPMKTSYDKVI, the enrichment is 2.65.

Regarding […] (CDR3 as printed); P3L derived by comparing it with the table's wild-type CDR3 AGPMKTSYDKVI, the enrichment worked out at 0.

Turning to […] (CDR3 as printed); M4S derived by comparing it with the table's wild-type CDR3 AGPMKTSYDKVI, the enrichment stood at 7.99.

As to […] (CDR3 as printed); D9G derived by comparing it with the table's wild-type CDR3 AGPMKTSYDKVI, the enrichment stood at 0.

For […] (CDR3 as printed); M4I derived by comparing it with the table's wild-type CDR3 AGPMKTSYDKVI, the enrichment turned out to be 18.9.

As for […] (CDR3 as printed); K10N derived by comparing it with the table's wild-type CDR3 AGPMKTSYDKVI, the enrichment was found to be 0.

With […] (CDR3 as printed); T6F derived by comparing it with the table's wild-type CDR3 AGPMKTSYDKVI, the enrichment was 0.

For the variant […] (CDR3 as printed); K5D derived by comparing it with the table's wild-type CDR3 AGPMKTSYDKVI, the enrichment turned out to be 37.8.

In the case of […] (CDR3 as printed); A1N derived by comparing it with the table's wild-type CDR3 AGPMKTSYDKVI, the enrichment stood at 0.476.

Take […] (CDR3 as printed); I12V derived by comparing it with the table's wild-type CDR3 AGPMKTSYDKVI: the enrichment was 11.6.

For […] (CDR3 as printed); A1Y derived by comparing it with the table's wild-type CDR3 AGPMKTSYDKVI, the enrichment was determined as 0.416.
